Assay results as given in patent US20250333531A1 (NORDIC NANOVECTOR ASA, published 2025).

Key:
human CD37 [1] = molecular target: T1, human CD37 (human, UniProt P11049 1-281); test: competitive radioligand binding on Ramos cells against 177Lu-NNV009 (2.7 nM), gamma counting
T1 construct: whole, on cells; also called CD37 antigen
T1 sequence (looked up): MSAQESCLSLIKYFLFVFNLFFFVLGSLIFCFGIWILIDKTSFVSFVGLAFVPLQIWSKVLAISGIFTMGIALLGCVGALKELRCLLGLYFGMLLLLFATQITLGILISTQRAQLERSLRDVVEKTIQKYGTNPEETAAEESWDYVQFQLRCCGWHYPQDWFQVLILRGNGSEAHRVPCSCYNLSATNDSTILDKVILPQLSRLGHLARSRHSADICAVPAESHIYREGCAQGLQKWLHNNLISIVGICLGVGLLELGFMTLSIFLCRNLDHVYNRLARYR
Description: (§1) The Eppendorf LoBind tubes 1.5 mL were used to prepare dilutions (working concentrations) of Abs. As much as 0.2 mL of the cell suspension (800 000 cells/tube), after it has been cooled down for 30 min on ice, was aliquoted to glass 12×75 mm counting tubes. Each tube was pre-labeled with a code specifically determining each sample. The tubes with cells were maintained on ice for whole time course of the experiment except for the time when counted on the gamma counter. The tubes were agitated on a planetary shaker at 350 RPM, 4° C. (on ice) for 15 min. […] The tubes were placed on the planetary shaker (GL 064), on ice, and shaken for 4 hours at 350 RPM. After 3.5 hours past from the beginning of incubation, the samples were assayed on Wizard2 gamma counter using protocol “Lu-177 General” (all detectors except for the detector #3 were used). Upon completion the counting, the cells were washed with ice-cold 0.5 mL 0.5% BSAPBS three times. All the tubes were assayed on the Wizard2 gamma counter again using the same sequence and parameters as before the washing.

human CD37 [2] = molecular target: T1, human CD37; test: competitive radioligand binding on Ramos cells; ratio to Ki of NNV009 (assumed 2.3)
Description: as §1

human CD37 [3] = molecular target: T1, human CD37; test: competitive radioligand binding on Ramos cells; upper end tied by Table 18 to AH02895
human CD37 [4] = molecular target: T1, human CD37; test: competitive radioligand binding on Ramos cells; lower end tied by Table 18 to AH02871HC + AH02877LC + V110D
[5] = molecular target: FcγRIIIa-V158 on Promega Jurkat effector cells (UniProt P08637 17-254, limits assumed); test: cell-based or functional assay
[6] = molecular target: T2, biotinylated truncated soluble human FcγRIIa-H131 (human, UniProt P12318 34-217, biotinylated); test: ELISA: IgG coated at 10000-4.5 ng/ml, biotinylated truncated soluble human FcγRIIa-H131 250 ng/ml pre-complexed with AP-streptavidin, absorbance 405 nm
T2 construct: extracellular domain; Bought
T2 sequence (looked up): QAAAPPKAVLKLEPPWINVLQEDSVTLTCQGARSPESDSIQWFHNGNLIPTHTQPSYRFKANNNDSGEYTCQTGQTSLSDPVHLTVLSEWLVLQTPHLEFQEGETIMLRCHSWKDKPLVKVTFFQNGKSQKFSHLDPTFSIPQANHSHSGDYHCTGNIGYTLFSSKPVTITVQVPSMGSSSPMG
Description: (§2) 96 well EIA/RIA plates (CorningCostar) were coated with 100 μl titrated amounts of IgG variants (10.000-4.5 ng/ml) diluted in PBS and incubated O/N at 4° C. Remaining surface area were blocked with PBS containing 0.05% T and 4% S for 1 h at RT. The plates were washed four times with PBS/T using a Hydrospeed™ plate washer (Tecan). […] Following washing as above, bound receptor was visualized by addition of phosphatase substrate (1 mg/ml in diethanolamine buffer) (Sigma Aldrich). The plates were developed for 15-20 min before the 405 nm absorption values were recorded using a TECAN Sunrise spectrophotometer (Tecan).

[7] = molecular target: T3, biotinylated truncated soluble human FcγRIIa-R131 (human, UniProt P12318 34-217, biotinylated); test: ELISA: IgG coated at 10000-4.5 ng/ml, biotinylated truncated soluble human FcγRIIa-R131 250 ng/ml pre-complexed with AP-streptavidin, absorbance 405 nm
T3 construct: extracellular domain; Bought
T3 sequence (looked up): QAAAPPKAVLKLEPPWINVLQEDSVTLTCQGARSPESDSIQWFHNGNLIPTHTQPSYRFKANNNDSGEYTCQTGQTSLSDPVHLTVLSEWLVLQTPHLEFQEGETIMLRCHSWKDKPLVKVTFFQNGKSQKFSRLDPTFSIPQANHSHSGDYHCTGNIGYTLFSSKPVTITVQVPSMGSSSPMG
Description: as §2

[8] = molecular target: T4, biotinylated truncated soluble human FcγRIIb (human, UniProt P31994 43-217, biotinylated); test: ELISA: IgG coated at 10000-4.5 ng/ml, biotinylated truncated soluble human FcγRIIb 250 ng/ml pre-complexed with AP-streptavidin, absorbance 405 nm
T4 construct: extracellular domain; Bought
T4 sequence (looked up): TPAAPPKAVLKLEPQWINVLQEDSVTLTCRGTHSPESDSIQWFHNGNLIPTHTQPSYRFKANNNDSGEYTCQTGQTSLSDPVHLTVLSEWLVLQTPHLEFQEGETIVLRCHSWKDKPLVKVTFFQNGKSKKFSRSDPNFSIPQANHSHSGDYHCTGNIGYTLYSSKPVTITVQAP
Description: as §2

[9] = molecular target: T5, human complement factor C1q (human, UniProt P02745 23-245; P02746 28-253; P02747 29-245); test: ELISA: IgG coated at 20000-156.25 ng/ml, human C1q 360 ng/ml, detected with rabbit anti-human C1q and HRP anti-rabbit IgG (y axis printed as Absorbance 405 nm)
T5 construct: Bought
Description: (§3) Remaining surface area were blocked with PBS containing 0.05% T and 4% S for 1 h at RT. The plates were then washed four times with PBS/T using a Hydrospeed™ plate washer (Tecan). Human C1q (Complement Technologies) diluted to 360 ng/ml in veronal buffer (Complement Technologies) were added and incubated for 30 min at 37° C. Detection of bound C1q was performed using a primary anti-human C1q antibody from rabbit (DAKO) diluted 1:10.000 in PBS/T/S and a secondary horseradish peroxidase (HRP) conjugated anti-rabbit IgG antibody diluted 1:5000 in PBS/T/S (GE Healthcare). Binding was visualized by addition of 100 μl TMB substrate (Calbiochem) for 15-20 min before the enzymatic reaction was stopped by addition of 50 μl 1 M HC1. The 450 nm absorption values were recorded using a Sunrise TECAN spectrophotometer (Tecan).

[10] = molecular target: T6, biotinylated soluble human FcRn (human, UniProt P55899 24-297; P61769 21-119, biotinylated); test: ELISA: IgG coated at 1000-0.45 ng/ml, biotinylated soluble human FcRn 250 ng/ml pre-complexed with AP-streptavidin, pH 6.0, absorbance 405 nm
T6 construct: extracellular domain; Bought; Beta-2-microglobulin is not mentioned; Used as preformed complex with AP-streptavidin
Description: Remaining surface area were blocked with PBS containing 0.05% T and 4% S for 1 h at RT. The plates were washed four times with PBS/T using a Hydrospeed™ plate washer (Tecan). […] Following washing as above with PBS/T or FcRn binding buffer ([…], 0.1 M NaCl, 0.05% T, pH 6.0), bound receptor was visualized by addition of phosphatase substrate (1 mg/ml in diethanolamine buffer) (Sigma Aldrich). The plates were developed for 20-30 min before the 405 nm absorption values were recorded using a TECAN Sunrise spectrophotometer (Tecan).

[11] = molecular target: T7, biotinylated truncated soluble human FcγRIIIa-F158 (human, UniProt P08637 17-208, biotinylated); test: ELISA: IgG coated at 10000-4.5 ng/ml, biotinylated truncated soluble human FcγRIIIa-F158 250 ng/ml pre-complexed with AP-streptavidin, absorbance 405 nm
T7 construct: extracellular domain; Bought
Description: as §2

[12] = molecular target: T5, human complement factor C1q; test: repeat ELISA: IgG coated at 20000-156.25 ng/ml, human C1q 360 ng/ml, detected with rabbit anti-human C1q and HRP anti-rabbit IgG (y axis printed as Absorbance 405 nm)
Description: as §3

[13] = molecular target: T8, biotinylated truncated soluble human FcγRIIIa-V158 (human, UniProt P08637 17-208, biotinylated); test: ELISA: IgG coated at 10000-4.5 ng/ml, biotinylated truncated soluble human FcγRIIIa-V158 250 ng/ml pre-complexed with AP-streptavidin, absorbance 405 nm
T8 construct: extracellular domain; Bought
Description: as §2

human CD37 [14] = molecular target: T1, human CD37; test: reference to the competitive binding of Example 6
[15] = molecular target: T9, biotinylated truncated soluble human FcγRI (human, UniProt P12314 16-292, biotinylated); test: ELISA: IgG coated at 10000-4.5 ng/ml, biotinylated truncated soluble human FcγRI 250 ng/ml pre-complexed with AP-streptavidin, absorbance 405 nm
T9 construct: extracellular domain; Bought; preformed complex with AP-streptavidin
Description: as §2

[16] = molecular target: T10, biotinylated truncated soluble human FcγRIIIb (human, UniProt O75015 17-200, limits assumed, biotinylated); test: ELISA: IgG coated at 10000-4.5 ng/ml, biotinylated truncated soluble human FcγRIIIb 250 ng/ml pre-complexed with AP-streptavidin, absorbance 405 nm
T10 construct: extracellular domain; Bought
Description: as §2

T5 sequence (P02745 23-245 limits assumed, chain 1 of 3): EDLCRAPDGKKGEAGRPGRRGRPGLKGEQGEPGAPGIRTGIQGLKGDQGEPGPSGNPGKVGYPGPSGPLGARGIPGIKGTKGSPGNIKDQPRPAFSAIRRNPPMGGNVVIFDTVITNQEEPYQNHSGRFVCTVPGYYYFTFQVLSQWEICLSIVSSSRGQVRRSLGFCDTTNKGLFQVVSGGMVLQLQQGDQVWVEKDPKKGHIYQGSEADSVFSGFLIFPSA
T5 sequence (P02746 28-253 limits assumed, chain 2 of 3): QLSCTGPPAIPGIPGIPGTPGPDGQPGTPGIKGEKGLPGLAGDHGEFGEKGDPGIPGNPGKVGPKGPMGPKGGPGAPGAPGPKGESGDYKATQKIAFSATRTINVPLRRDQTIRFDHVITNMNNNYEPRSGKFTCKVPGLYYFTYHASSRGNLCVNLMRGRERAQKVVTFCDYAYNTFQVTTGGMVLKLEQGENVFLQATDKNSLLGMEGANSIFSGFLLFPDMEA
T5 sequence (P02747 29-245 limits assumed, chain 3 of 3): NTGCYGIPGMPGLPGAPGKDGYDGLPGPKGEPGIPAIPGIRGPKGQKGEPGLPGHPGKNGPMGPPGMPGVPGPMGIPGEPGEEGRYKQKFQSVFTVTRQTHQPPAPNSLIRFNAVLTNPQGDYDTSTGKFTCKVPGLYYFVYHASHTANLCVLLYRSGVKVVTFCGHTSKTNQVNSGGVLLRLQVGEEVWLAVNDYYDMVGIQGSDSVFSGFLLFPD
T10 sequence (O75015 17-200 limits assumed): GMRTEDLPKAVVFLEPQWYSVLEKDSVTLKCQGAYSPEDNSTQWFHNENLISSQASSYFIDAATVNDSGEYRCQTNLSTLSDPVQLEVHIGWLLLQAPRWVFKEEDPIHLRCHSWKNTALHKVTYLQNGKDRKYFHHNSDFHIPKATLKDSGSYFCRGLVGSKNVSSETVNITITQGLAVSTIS
T6 sequence (P55899 24-297 limits assumed, chain 1 of 2): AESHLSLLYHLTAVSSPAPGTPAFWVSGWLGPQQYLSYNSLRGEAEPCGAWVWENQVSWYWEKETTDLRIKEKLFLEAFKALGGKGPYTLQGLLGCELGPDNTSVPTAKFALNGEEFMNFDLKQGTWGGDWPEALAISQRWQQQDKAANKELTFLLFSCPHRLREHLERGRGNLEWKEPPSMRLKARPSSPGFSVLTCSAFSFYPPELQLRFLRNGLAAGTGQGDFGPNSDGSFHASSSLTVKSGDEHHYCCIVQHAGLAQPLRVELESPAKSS
T6 sequence (P61769 21-119 limits assumed, chain 2 of 2): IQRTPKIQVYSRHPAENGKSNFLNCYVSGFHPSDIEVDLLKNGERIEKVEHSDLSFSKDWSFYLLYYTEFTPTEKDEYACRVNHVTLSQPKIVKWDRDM
T9 sequence (P12314 16-292): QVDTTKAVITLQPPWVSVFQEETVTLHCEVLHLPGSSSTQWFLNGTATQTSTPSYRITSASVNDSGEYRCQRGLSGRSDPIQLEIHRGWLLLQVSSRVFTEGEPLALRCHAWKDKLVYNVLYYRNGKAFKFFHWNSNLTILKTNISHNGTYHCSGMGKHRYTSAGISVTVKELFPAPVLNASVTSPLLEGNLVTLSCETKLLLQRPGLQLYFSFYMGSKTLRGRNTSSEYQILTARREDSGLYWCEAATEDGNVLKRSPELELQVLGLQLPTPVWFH

B1: AH02895 (antibody, human IgG1, kappa, V domains shown)
VH: QIQLVQSGAEVVKPGASVKVSCKASGYSFTDYNMYWVKQAPGQRLEWMGYIDPYNGDTTYNQKFKGRATITRDTSASTAYIELSSLRSEDTAVYYCARSPYGHYAMDYWGQGTLVTVSS
VL: DIQMTQSPSSLSASVGDRVTITCKASQDVSTAVDWYQQKPGKAPKLLINWASTRHTGVPSRFSGSGSGTDYTLTISSMQPEDFATYYCRQHYSTPFTFGQGTKLEIKR
notes: Humanized IgG1 kappa; also called NNV020 #6
EC50 (human CD37 [1]): 0.718 nM
Ki (human CD37 [1]): 0.33 nM
Ki(NNV009)/Ki(NNV020 var.) (human CD37 [2]): 6.97 fold
fold affinity relative to NNV009 (human CD37 [3]): 4 to 7 fold

B2: NNV023 (antibody, human IgG1)
heavy: not shown
light: DIQMTQSPSSLSASVGDRVTITCKASQDVSTAVDWYQQKPGKSPKLLINWASTRHTGVPSRFSGSGSGTDYTLTISSLQPEDFATYYCRQHYSTPFTFGQGTKLEIKRTDAAPSVFIFPPSDEQLKSGTASVVCLLNNFYPREAKVQWKVDNALQSGNSQESVTEQDSKDSTYSLSSTLTLSKADYEKHKVYACEVTHQGLSSPVTKSFNRGEC
notes: Humanized IgG1 kappa, fucosylated; also called AH02871HC + AH02877LC + V110D; AH02871HC_2877LC-110D
EC50 (human CD37 [1]): 1.24 nM
Ki (human CD37 [1]): 0.571 nM
Ki(NNV009)/Ki(NNV020 var.) (human CD37 [2]): 4.03 fold
fold affinity relative to NNV009 (human CD37 [4]): 4 to 7 fold
average potency of the ADCC response (Example 13) [5]: 3 nM
efficacy (Emax) relative to NNV024, ADCC FcγRIIIa-158V reporter assay [5]: 75%
potency (EC50) relative to rituximab, ADCC FcγRIIIa-158V reporter assay [5]: ~7 fold

B3: NNV024 (antibody, human IgG1)
heavy: not shown
light: DIQMTQSPSSLSASVGDRVTITCKASQDVSTAVDWYQQKPGKSPKLLINWASTRHTGVPSRFSGSGSGTDYTLTISSLQPEDFATYYCRQHYSTPFTFGQGTKLEIKRTDAAPSVFIFPPSDEQLKSGTASVVCLLNNFYPREAKVQWKVDNALQSGNSQESVTEQDSKDSTYSLSSTLTLSKADYEKHKVYACEVTHQGLSSPVTKSFNRGEC
modifications: afucosylated N-glycan (GlymaxX technology)
notes: Humanized IgG1 kappa, same chains as NNV023, afucosylated; also called afucosylated NNV023; AH02871HC_2877LC-110D GlymaxX
EC50 (read off the curve) [6]: ~300 ng/mL
EC50 (read off the curve) [7]: ~800 ng/mL
EC50 (read off the curve) [8]: ~700 ng/mL
EC50 (read off the curve) [9]: ~3000 ng/mL
EC50 (read off the curve) [10]: ~40 ng/mL
ADCC signaling at 1 µg/mL relative to obinutuzumab, patient-derived CLL cells [5]: ~3 fold
average Emax relative to rituximab, ADCC FcγRIIIa-158V reporter assay, ten B-NHL cell lines [5]: 1.36 fold
average potency (EC50) relative to rituximab, ADCC FcγRIIIa-158V reporter assay [5]: 35.5 fold
average potency of the ADCC response (Example 13) [5]: 0.6 nM
EC50 (read off the curve) [11]: ~200 ng/mL
EC50 (read off the curve) [12]: ~2000 ng/mL
EC50 (read off the curve) [13]: ~600 ng/mL
binding result (human CD37 [14]): binds
EC50 (read off the curve) [15]: ~400 ng/mL
EC50 (read off the curve) [16]: ~400 ng/mL
